{
  "source": "the supplement of paper PMC9112550",
  "about": "“Optimization of the antimicrobial peptide Bac7 by deep mutational scanning” (BMC Biology, 2022);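 further: peptides expressed intracellularly from a pBAD plasmid library in pooled LB shake-flask culture, induced with 0.3% L-arabinose, DNA abundance read by NGS, three biological replicates, DESeq2 with apeglm shrinkage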",
  "data": [
    {"system": "Escherichia coli TOP10", "experiment": "shrunken log2 fold change of peptide-encoding DNA abundance (4.5 h post-induction vs induction); higher = less antimicrobial activity (less host growth inhibition)", "conditions": "time post-induction: 4.5 h; library: site-saturation at positions 5, 18, 19, 20", "values": [
      {"sequence": "RRIRGRPPRLPRPRPRPQTTPRP", "shrunken log2 fold change": 0.889},
      {"sequence": "RRIRGRPPRLPRPRPRPQVNPRP", "shrunken log2 fold change": 0.0954},
      {"sequence": "RRIRGRPPRLPRPRPRPQVWPRP", "shrunken log2 fold change": 0.846},
      {"sequence": "RRIRGRPPRLPRPRPRPQWLPRP", "shrunken log2 fold change": 0.136},
      {"sequence": "RRIRGRPPRLPRPRPRPRANPRP", "shrunken log2 fold change": 0.816},
      {"sequence": "RRIRGRPPRLPRPRPRPRCKPRP", "shrunken log2 fold change": 0.476},
      {"sequence": "RRIRGRPPRLPRPRPRPRDHPRP", "shrunken log2 fold change": 0.978},
      {"sequence": "RRIRGRPPRLPRPRPRPREEPRP", "shrunken log2 fold change": 1.57},
      {"sequence": "RRIRGRPPRLPRPRPRPRFDPRP", "shrunken log2 fold change": 0.382},
      {"sequence": "RRIRGRPPRLPRPRPRPRFGPRP", "shrunken log2 fold change": 0.662},
      {"sequence": "RRIRGRPPRLPRPRPRPRFHPRP", "shrunken log2 fold change": 0.0803},
      {"sequence": "RRIRGRPPRLPRPRPRPRFNPRP", "shrunken log2 fold change": 0.0824},
      {"sequence": "RRIRGRPPRLPRPRPRPRKCPRP", "shrunken log2 fold change": 0.666},
      {"sequence": "RRIRGRPPRLPRPRPRPRKHPRP", "shrunken log2 fold change": 0.632},
      {"sequence": "RRIRGRPPRLPRPRPRPRKPPRP", "shrunken log2 fold change": 0.399},
      {"sequence": "RRIRGRPPRLPRPRPRPRLMPRP", "shrunken log2 fold change": 0.617},
      {"sequence": "RRIRGRPPRLPRPRPRPRLWPRP", "shrunken log2 fold change": 1.36},
      {"sequence": "RRIRGRPPRLPRPRPRPRMKPRP", "shrunken log2 fold change": 0.426},
      {"sequence": "RRIRGRPPRLPRPRPRPRNDPRP", "shrunken log2 fold change": 0.113},
      {"sequence": "RRIRGRPPRLPRPRPRPRNIPRP", "shrunken log2 fold change": 0.0648},
      {"sequence": "RRIRGRPPRLPRPRPRPRQSPRP", "shrunken log2 fold change": 0.647},
      {"sequence": "RRIRGRPPRLPRPRPRPRSRPRP", "shrunken log2 fold change": 0.368},
      {"sequence": "RRIRGRPPRLPRPRPRPRTHPRP", "shrunken log2 fold change": 0.666},
      {"sequence": "RRIRGRPPRLPRPRPRPRWNPRP", "shrunken log2 fold change": 0.423},
      {"sequence": "RRIRGRPPRLPRPRPRPRWPPRP", "shrunken log2 fold change": 0.973},
      {"sequence": "RRIRGRPPRLPRPRPRPRWWPRP", "shrunken log2 fold change": 0.667},
      {"sequence": "RRIRGRPPRLPRPRPRPRYCPRP", "shrunken log2 fold change": 0.295},
      {"sequence": "RRIRGRPPRLPRPRPRPSAAPRP", "shrunken log2 fold change": 2.09},
      {"sequence": "RRIRGRPPRLPRPRPRPSCNPRP", "shrunken log2 fold change": 0.588},
      {"sequence": "RRIRGRPPRLPRPRPRPSDWPRP", "shrunken log2 fold change": 0.251},
      {"sequence": "RRIRGRPPRLPRPRPRPSELPRP", "shrunken log2 fold change": 0.404},
      {"sequence": "RRIRGRPPRLPRPRPRPSERPRP", "shrunken log2 fold change": 0.278},
      {"sequence": "RRIRGRPPRLPRPRPRPSETPRP", "shrunken log2 fold change": 0.223},
      {"sequence": "RRIRGRPPRLPRPRPRPSFFPRP", "shrunken log2 fold change": 0.202},
      {"sequence": "RRIRGRPPRLPRPRPRPSFLPRP", "shrunken log2 fold change": -0.118},
      {"sequence": "RRIRGRPPRLPRPRPRPSFWPRP", "shrunken log2 fold change": 0.66},
      {"sequence": "RRIRGRPPRLPRPRPRPSGIPRP", "shrunken log2 fold change": 0.0684},
      {"sequence": "RRIRGRPPRLPRPRPRPSHEPRP", "shrunken log2 fold change": -0.418},
      {"sequence": "RRIRGRPPRLPRPRPRPSHWPRP", "shrunken log2 fold change": 0.157},
      {"sequence": "RRIRGRPPRLPRPRPRPSIMPRP", "shrunken log2 fold change": 0.16},
      {"sequence": "RRIRGRPPRLPRPRPRPSIWPRP", "shrunken log2 fold change": 0.511},
      {"sequence": "RRIRGRPPRLPRPRPRPSKEPRP", "shrunken log2 fold change": 0.289},
      {"sequence": "RRIRGRPPRLPRPRPRPSMEPRP", "shrunken log2 fold change": 0.467},
      {"sequence": "RRIRGRPPRLPRPRPRPSMYPRP", "shrunken log2 fold change": 0.173},
      {"sequence": "RRIRGRPPRLPRPRPRPSPLPRP", "shrunken log2 fold change": 0.539},
      {"sequence": "RRIRGRPPRLPRPRPRPSQVPRP", "shrunken log2 fold change": 0.235},
      {"sequence": "RRIRGRPPRLPRPRPRPSRGPRP", "shrunken log2 fold change": 0.605},
      {"sequence": "RRIRGRPPRLPRPRPRPSSDPRP", "shrunken log2 fold change": 0.439},
      {"sequence": "RRIRGRPPRLPRPRPRPSSKPRP", "shrunken log2 fold change": 0.0383},
      {"sequence": "RRIRGRPPRLPRPRPRPSSWPRP", "shrunken log2 fold change": 1.05},
      {"sequence": "RRIRGRPPRLPRPRPRPSTNPRP", "shrunken log2 fold change": 0.271},
      {"sequence": "RRIRGRPPRLPRPRPRPSTVPRP", "shrunken log2 fold change": 0.164},
      {"sequence": "RRIRGRPPRLPRPRPRPSVDPRP", "shrunken log2 fold change": 0.861},
      {"sequence": "RRIRGRPPRLPRPRPRPSVEPRP", "shrunken log2 fold change": 0.651},
      {"sequence": "RRIRGRPPRLPRPRPRPSWGPRP", "shrunken log2 fold change": 0.0507},
      {"sequence": "RRIRGRPPRLPRPRPRPSYGPRP", "shrunken log2 fold change": -0.137},
      {"sequence": "RRIRGRPPRLPRPRPRPTALPRP", "shrunken log2 fold change": 1.12},
      {"sequence": "RRIRGRPPRLPRPRPRPTDCPRP", "shrunken log2 fold change": 0.275},
      {"sequence": "RRIRGRPPRLPRPRPRPTDQPRP", "shrunken log2 fold change": 0.846},
      {"sequence": "RRIRGRPPRLPRPRPRPTEVPRP", "shrunken log2 fold change": 0.311},
      {"sequence": "RRIRGRPPRLPRPRPRPTGWPRP", "shrunken log2 fold change": 1.04},
      {"sequence": "RRIRGRPPRLPRPRPRPTLKPRP", "shrunken log2 fold change": 0.769},
      {"sequence": "RRIRGRPPRLPRPRPRPTMMPRP", "shrunken log2 fold change": 0.541},
      {"sequence": "RRIRGRPPRLPRPRPRPTNPPRP", "shrunken log2 fold change": 0.367},
      {"sequence": "RRIRGRPPRLPRPRPRPTNQPRP", "shrunken log2 fold change": 0.579},
      {"sequence": "RRIRGRPPRLPRPRPRPTNSPRP", "shrunken log2 fold change": 0.319},
      {"sequence": "RRIRGRPPRLPRPRPRPTPDPRP", "shrunken log2 fold change": 1.24},
      {"sequence": "RRIRGRPPRLPRPRPRPTQCPRP", "shrunken log2 fold change": 0.222},
      {"sequence": "RRIRGRPPRLPRPRPRPTQQPRP", "shrunken log2 fold change": 0.94},
      {"sequence": "RRIRGRPPRLPRPRPRPTQRPRP", "shrunken log2 fold change": 0.739},
      {"sequence": "RRIRGRPPRLPRPRPRPTREPRP", "shrunken log2 fold change": 0.994},
      {"sequence": "RRIRGRPPRLPRPRPRPTSKPRP", "shrunken log2 fold change": 0.69},
      {"sequence": "RRIRGRPPRLPRPRPRPTSSPRP", "shrunken log2 fold change": 0.425},
      {"sequence": "RRIRGRPPRLPRPRPRPTSWPRP", "shrunken log2 fold change": 0.782},
      {"sequence": "RRIRGRPPRLPRPRPRPTSYPRP", "shrunken log2 fold change": 0.105}
    ]}
  ]
}
